Experimental data: publication PMC2172978 (The Journal of Cell Biology, 2003)

Biological target: T1, flag–Lte1 (budding yeast, UniProt P07866 1-1435)
T1 sequence (looked up): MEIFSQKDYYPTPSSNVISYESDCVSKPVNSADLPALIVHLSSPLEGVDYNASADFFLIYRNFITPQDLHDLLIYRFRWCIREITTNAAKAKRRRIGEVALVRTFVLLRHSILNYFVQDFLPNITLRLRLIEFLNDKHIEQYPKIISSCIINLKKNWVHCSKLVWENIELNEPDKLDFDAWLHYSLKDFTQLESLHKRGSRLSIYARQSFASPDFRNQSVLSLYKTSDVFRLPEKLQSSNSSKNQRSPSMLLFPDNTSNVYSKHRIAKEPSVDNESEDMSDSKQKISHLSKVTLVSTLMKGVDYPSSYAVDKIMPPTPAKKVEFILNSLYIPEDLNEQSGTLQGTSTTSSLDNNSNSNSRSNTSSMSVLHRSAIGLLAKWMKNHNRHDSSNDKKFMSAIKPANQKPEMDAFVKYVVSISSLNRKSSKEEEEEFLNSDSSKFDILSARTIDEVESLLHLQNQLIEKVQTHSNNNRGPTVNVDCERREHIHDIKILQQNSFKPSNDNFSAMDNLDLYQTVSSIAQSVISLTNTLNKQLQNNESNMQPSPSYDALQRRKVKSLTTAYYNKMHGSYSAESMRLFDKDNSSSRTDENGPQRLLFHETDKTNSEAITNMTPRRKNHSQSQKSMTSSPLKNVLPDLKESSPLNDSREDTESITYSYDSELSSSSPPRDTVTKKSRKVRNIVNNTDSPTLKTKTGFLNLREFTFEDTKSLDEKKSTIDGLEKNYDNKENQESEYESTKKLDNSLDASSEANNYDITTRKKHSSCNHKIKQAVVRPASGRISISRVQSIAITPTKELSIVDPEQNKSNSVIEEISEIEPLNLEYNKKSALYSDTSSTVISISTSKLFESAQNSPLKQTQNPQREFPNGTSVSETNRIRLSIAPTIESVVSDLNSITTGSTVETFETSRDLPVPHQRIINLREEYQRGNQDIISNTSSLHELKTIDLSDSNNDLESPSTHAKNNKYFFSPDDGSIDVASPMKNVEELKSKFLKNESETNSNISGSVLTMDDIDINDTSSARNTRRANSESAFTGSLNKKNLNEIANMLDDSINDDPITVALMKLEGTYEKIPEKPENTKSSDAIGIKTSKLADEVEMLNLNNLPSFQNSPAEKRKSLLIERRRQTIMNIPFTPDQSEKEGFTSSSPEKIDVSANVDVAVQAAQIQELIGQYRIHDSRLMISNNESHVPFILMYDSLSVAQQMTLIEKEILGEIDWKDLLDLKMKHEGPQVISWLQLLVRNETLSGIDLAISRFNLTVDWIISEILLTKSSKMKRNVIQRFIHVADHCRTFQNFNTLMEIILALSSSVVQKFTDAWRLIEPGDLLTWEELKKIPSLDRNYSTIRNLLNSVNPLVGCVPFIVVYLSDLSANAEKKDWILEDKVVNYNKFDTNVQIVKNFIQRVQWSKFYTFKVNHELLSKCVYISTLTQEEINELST
Experiment: pull-down

B1: Ras2 protein purified from the insect cells (natural protein, budding yeast, UniProt P01120 1-322, looked up)
chain: MPLNKSNIREYKLVVVGGGGVGKSALTIQLTQSHFVDEYDPTIEDSYRKQVVIDDEVSILDILDTAGQEEYSAMREQYMRNGEGFLLVYSITSKSSLDELMTYYQQILRVKDTDYVPIVVVGNKSDLENEKQVSYQDGLNMAKQMNAPFLETSAKQAINVEEAFYTLARLVRDEGGKYNKTLTENDNSKQTSQDTKGSGANSVPRNSGGHRKMSNAANGKNVNSSTTVVNARNASIESKTGLAGNQATNGKTQTDRTNIDNSTGQAGQANAQSANTVNNRVNNNSKAGQVSNAKQARKQQAAPGGNTSEASKSGSGGCCIIS
Question: Does B1 bind?
Answer: binds
